# From publication doi:10.1101/2025.02.26.640323, “Aggregation-Dependent Epitope Sequence and Modification Fingerprints of Anti-Aβ Antibodies” (bioRxiv, 2025)
# Entries after “also recorded” stand apart in the source; their conditions may differ.
# What was measured:
# [1] = system: synthetic Aβ peptide variants; assay: Capillary isoelectric focusing (CIEF) immunoassay; type: binding
# Protocol: Automated capillary isoelectric focusing immunoassays were performed with a Peggy-Sue system (ProteinSimple,San Jose, California, USA), essentially as previously described and [53].
# In brief, synthetic Aβ peptide variants were separated by isoelectric focusing in microcapillaries followed by photochemical immobilization to the inner capillary walls and probing with the primary antibodies for 120 min. After 2 washes, the horseradish peroxidase conjugated secondary antibodies were loaded and incubated for 60 min. After two washing steps, a luminol/peroxide mix was loaded, and chemiluminescent signals were recorded. The data was analyzed with the Compass for SW software. The following secondary antibodies were used: Anti-human IgG Secondary HRP antibody (Protein Simple, catalog number 043–491), Goat-Anti-Mouse-HRP Secondary Antibody ProteinSimple, catalog number 040–655) and Peroxidase-conjugated Affini Pure Donkey Anti-Human IgG (H+L) (1:100 dilution) (Jackson ImmunoResearch Laboratories Inc., West Grove, PA, code number 709–035-149).
# [2] = system: amyloid precursor protein (APP770) residues 649–722; assay: Peptide microarray epitope pre-screening (overlapping 15-mers); type: binding, human; details: 0.5–1 μg/mL antibody
# Protocol: Information regarding binding epitopes and /or immunogens for most of the tested Aβ-Abs has been published and is summarized in Table 1. However, the binding epitope information was derived from varying methodologies. To provide an initial side-by-side comparison we pre-screened all of the listed Aβ-Abs in array format using copies of peptide libraries and standard antibody concentrations of 0.5–1 μg/mL (Figure 1a). The library comprised the amyloid precursor protein (APP770) residues 649–722, corresponding to the canonical Aβ1–42 amino acid sequence with additional 23 amino terminal and 9 carboxy terminal residues. […] For optimal signal to noise ratios and ideal selectivity profiles on the microarrays, the Aβ-Ab concentrations were adjusted for 3D6, 82E1, 11H3, 80C2 and 7H3D6 (Figure 1 – figure- supplement 1) and (Appendix 1–7). […] Specifically, Donanemabbs, 2–48 and Aβ-pE3 were raised against AβpE3-x (Table 1) and were expected to show preference for Aβ peptides starting with a pE(3).
# Figure 1. Microarray workflow and Aβ-Ab epitope pre-screening. (a) Schematic of the microarray workflow. The library comprised the amyloid precursor protein (APP) residues 649–722 (APP770 numbering), corresponding to Aβ residues −23 to 51, as a library of 15-mer peptides overlapping by 14AAs, copied in dozens, and probed for Aβ-Abs binding followed by analysis in MARTin. (b) The epitope screening binding data are summarized as a heatmap. Blue and red shades indicate the relative binding strength of the related arrayed peptides to the left and cognate Aβ-Ab on top. The blue – red scale is visualizing the normalized binding intensity for each antibody individually. The applied antibody concentrations ranged between 0.5–1 μg/mL.
# The μSPOT assay was performed as previously described. […] Peptide arrays were synthesized using MultiPep RSi robot (CEM GmbH, Kamp-Lintford, Germany) on cellulose discs containing Fmoc-β-Ala linkers. Natural amino acid building blocks were purchased from IRIS (IRIS Biotech GmbH, Marktredwitz, Germany). Special building blocks employed in this study such as isomers, stereoisomers, phosphorylation and pyroglutamination […] modifications are listed here: Fmoc-L-Ser(PO(OBzl)OH)-OH (Iris – FAA1423), L-Pyroglutamic acid pentachlorophenyl ester (Novabiochem - 8.54203), Fmoc-L-Asp-OtBu (Iris – FAA1356), Fmoc-D-Asp-OtBu (Carbosolutions – CC05095) and Fmoc-D-Asp(tBu)-OH (Iris – FAA1309). Synthesis was carried out by deprotecting the Fmoc-group using 20% piperidine in dimethylformamide (DMF). Peptide chains were elongated using a coupling solution consisting of amino acids (0.5M) with oxyma (1M) and DIC (1M) in DMF (1:1:1). Coupling steps were carried out 3 times (30min), followed by capping (4% acetic anhydride in DMF). Discs were transferred into 96 deep-well plates for the work-up.
# [3] = system: mixture of ten synthetic Aβ peptides; assay: IP-MS from mixture of ten synthetic Aβ peptides; type: binding; details: TOPAC matrix, 10ng/mL each peptide
substance,measurement,setting,value
"Donanemabbs: humanized monoclonal, biosimilar of Donanemab, Proteogenix (#PX-TA1549)",signals with other N-terminal Aβ variants (CIEF and Bicine-Tris Western blot),[1],no or very small signals
same,preference of Aβ variant (CIEF and Bicine-Tris Western blot),[1]; AβpE3–40 vs Aβ3–40,clear preference for the Aβ variant starting with the cyclized N-terminal pE; also recorded: high preference for pyroglutamate bearing pEAβ3–40
same,Aβ variants detected on CIEF-immunoassay,"[1]; Peggy Sue, chemiluminescence",detected AβpE3–40 and Aβ3–40
same,Array: epitope identified in this study on microarrays,"[2]; Aβ residue numbers, 15-mer peptides overlapping by 14AAs on cellulose conjugates, chemiluminescence",3–10
same,binding in epitope pre-screening,"[2]; unmodified Aβ-related 15-mers, generic pre-screening conditions","detected Aβ(3-x) starting with non-cyclized Glu (3), Aβ(−3-x) as well as several other N-terminally elongated Aβ-related peptides and Aβ1-x; also recorded: clear signals with AβpE3-x and several other Aβ related peptides starting N-terminally of Glu(3), including Aβ1-x"
same,IP-MS signal of AβpE3–40,[3],highly preferential binding
